Reference: paper PMC9561270, “Phosphorylation of the auxin signaling transcriptional repressor IAA15 by MPKs is required for the suppression of root development under drought stress in Arabidopsis” (Nucleic Acids Research, 2022)

Key:
His-MPK3 = target: T1, His-MPK3 (Arabidopsis thaliana, UniProt Q39023 1-370); test: pull-down; 2 ug GST or GST-IAA15 on glutathione-Sepharose 4B beads; 1 ug His-MPK added, overnight at 4 C; 50 mM Tris-HCl pH 7.5, 200 mM NaCl, 1% Triton X-100, 0.1 mM EDTA, 0.5 mM DTT; detected with anti-His antibodies; details: both partners purified
T1 construct: also called His-fused MPK3; source: E. coli M15, purified (Ni-NTA agarose); not shown: His, N-terminal, kept
T1 sequence (looked up): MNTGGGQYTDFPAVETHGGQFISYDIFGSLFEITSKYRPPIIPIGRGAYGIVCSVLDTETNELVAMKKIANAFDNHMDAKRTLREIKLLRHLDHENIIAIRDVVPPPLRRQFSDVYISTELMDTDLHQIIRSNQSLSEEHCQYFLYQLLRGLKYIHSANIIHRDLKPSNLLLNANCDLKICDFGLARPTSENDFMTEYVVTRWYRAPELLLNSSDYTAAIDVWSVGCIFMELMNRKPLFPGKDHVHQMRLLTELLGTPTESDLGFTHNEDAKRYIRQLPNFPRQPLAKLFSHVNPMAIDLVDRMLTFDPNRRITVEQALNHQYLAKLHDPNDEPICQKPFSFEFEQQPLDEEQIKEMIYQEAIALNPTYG

His-MPK6 = target: T2, His-MPK6 (Arabidopsis thaliana, UniProt Q39026 1-395); test: as above; details: both partners purified
T2 construct: also called His-fused MPK6; source: E. coli M15, purified (Ni-NTA agarose); not shown: His, N-terminal, kept
T2 sequence (Q39026 whole entry, the tested form may be a part): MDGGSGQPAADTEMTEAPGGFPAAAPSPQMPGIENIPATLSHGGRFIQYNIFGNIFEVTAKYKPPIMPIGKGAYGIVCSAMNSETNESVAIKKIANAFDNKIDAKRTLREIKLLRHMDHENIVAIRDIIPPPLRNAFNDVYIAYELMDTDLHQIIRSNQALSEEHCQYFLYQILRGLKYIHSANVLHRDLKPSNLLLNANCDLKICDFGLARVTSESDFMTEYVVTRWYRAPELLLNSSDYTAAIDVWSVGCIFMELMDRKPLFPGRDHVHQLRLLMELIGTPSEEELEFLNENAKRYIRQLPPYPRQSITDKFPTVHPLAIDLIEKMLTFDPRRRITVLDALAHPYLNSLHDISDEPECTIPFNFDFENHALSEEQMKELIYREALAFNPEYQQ

binding result (His-MPK3): binds | binding result (His-MPK6): binds
B1: GST-IAA15 (natural protein, Arabidopsis thaliana, UniProt Q9C966 1-179, looked up)
chain: MSPEEYVRVWPDSGDLGGTELTLALPGTPTNASEGPKKFGNKRRFLETVDLKLGEAHENNYISSMVTNDQLVGWPPVATARKTVRRKYVKVALDGAAYLRKVDLGMYDCYGQLFTALENMFQGIITICRVTELERKGEFVATYEDKDGDLMLVGDVPWMMFVESCKRMRLMKTGDAIGL
notes: Auxin-responsive protein IAA15, Arabidopsis thaliana, At1g80390, full length, cloned into pGEX-4T-1; also called GST-fused IAA15; GST-IAA15^WT; source: E. coli BL21 (DE3), purified (glutathione Sepharose-4B); not shown: GST, N-terminal, kept
